Results taken from US20250145689A1 (CIRCULAR COMMITMENT, published 2025).
Values belong to the molecule of their own block, whether it stands above or below them.

Columns and labels:
[1] = target: Recombinant water soluble mouse PLVAP (extracellular domain, residues 48-438) (mouse) (UniProt Q91VC4); assay: told in the legend of the competitive ELISA; method of the comparison not stated
[2] = target: Recombinant water soluble mouse PLVAP (extracellular domain, residues 48-438) (mouse) (UniProt Q91VC4); assay: Scatchard analysis; plate-coated recombinant mouse PLVAP, bound Fab-TF measured by chromogenic TF activity; mean ± SD of 6 batches
[3] = target: Recombinant water soluble mouse PLVAP (extracellular domain, residues 48-438) (mouse) (UniProt Q91VC4); assay: competitive ELISA on plate-coated mouse PLVAP; competitor biotinylated MECA32 mAb
[4] = target: T1, Recombinant water soluble human PLVAP (extracellular domain, residues 51-442) (human) (UniProt Q9BX97); assay: Scatchard analysis; plate-coated recombinant human PLVAP, bound Fab-TF measured by chromogenic TF activity; mean ± SD of 3 batches
T1 sequence: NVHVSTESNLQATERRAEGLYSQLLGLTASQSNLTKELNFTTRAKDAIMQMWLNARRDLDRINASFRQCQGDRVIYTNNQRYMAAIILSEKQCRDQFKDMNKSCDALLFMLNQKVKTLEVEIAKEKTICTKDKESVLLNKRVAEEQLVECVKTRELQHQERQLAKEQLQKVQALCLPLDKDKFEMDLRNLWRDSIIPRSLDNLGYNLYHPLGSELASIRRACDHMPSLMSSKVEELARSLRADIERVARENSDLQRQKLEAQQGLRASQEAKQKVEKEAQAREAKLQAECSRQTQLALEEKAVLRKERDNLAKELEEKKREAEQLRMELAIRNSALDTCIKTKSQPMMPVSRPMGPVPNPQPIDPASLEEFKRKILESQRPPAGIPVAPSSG

[5] = target: T2, Recombinant water soluble mouse PLVAP (extracellular domain, residues 48-438) (mouse, UniProt Q91VC4 48-438); assay: ELISA on plate-coated mouse PLVAP, detected with biotinylated anti-hTF antibody
T2 construct: The cDNA clone (Invitrogen) is not tied to NP_115774.2 in words; His-tag not reported as removed; also called mPLVAP; His-mPLVAP; not shown: His-tag of the pET-15b vector
T2 sequence: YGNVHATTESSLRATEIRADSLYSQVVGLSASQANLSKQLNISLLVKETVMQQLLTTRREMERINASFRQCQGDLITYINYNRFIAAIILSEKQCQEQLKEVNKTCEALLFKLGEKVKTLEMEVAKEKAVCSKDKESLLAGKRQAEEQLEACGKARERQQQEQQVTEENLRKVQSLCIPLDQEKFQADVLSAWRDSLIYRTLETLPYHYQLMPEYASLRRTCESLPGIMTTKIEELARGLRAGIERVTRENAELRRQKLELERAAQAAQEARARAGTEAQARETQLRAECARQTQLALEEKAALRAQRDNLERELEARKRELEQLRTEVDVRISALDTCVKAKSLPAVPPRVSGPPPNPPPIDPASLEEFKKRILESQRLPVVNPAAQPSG

binding affinity against MECA32 mAb [1]: 1 log lower
Kd [2]: 57.2 nM
Molecule: Fab fragment of MECA32 anti-mouse PLVAP monoclonal antibody co-expressing human tissue factor

potency in competition against MECA32-Fab-TF [3]: 1 log
Molecule: Rat anti-mouse PLVAP MECA32 monoclonal antibody

Kd [4]: 30.7 nM
B1: Recombinant Fab fragment of CSRO2 anti-human PLVAP monoclonal antibody co-expressing water-soluble human tissue factor (Fab, part only; not given: Humanized CSRO2 kappa light chain, part only)
heavy: MQVQLVQSGSELKKPGASVKVSCKASGYTFTSNYINWVRQAPGQGLEWMGNIYPSDGFTNYNQKFKDRVTITVDKSTSTAYMELSSLRSEDTAVYYCTRNFDVWGQGTTVTVSSASTKGPSVFPLAPCSRSTSESTAALGCLVKDYFPEPVTVSWNSGALTSGVHTFPAVLQSSGLYSLSSVVTVPSSSLGTKTYTCNVDHKPSNTKVDKRVESKYGPPCPSCPGGGGSGGGGSGGGGSSGTTNTVAAYNLTWKSTNFKTILEWEPKPVNQVYTVQISTKSGDWKSKCFYTTDTECDLTDEIVKDVKQTYLARVFSYPAGNVESTGSAGEPLYENSPEFTPYLETNLGQPTIQSFEQVGTKVNVTVEDERTLVRRNNTFLSLRDVFGKDLIYTLYYWKSSSSGKKTAKTNTNEFLIDVDKGENYCFSVQAVIPSRTVNRKSTDSPVECMGQEKGEFRE

binding result [5]: no binding
B2: Soluble human tissue factor without antibody (other)
chain: SGTTNTVAAYNLTWKSTNFKTILEWEPKPVNQVYTVQISTKSGDWKSKCFYTTDTECDLTDEIVKDVKQTYLARVFSYPAGNVESTGSAGEPLYENSPEFTPYLETNLGQPTIQSFEQVGTKVNVTVEDERTLVRRNNTFLSLRDVFGKDLIYTLYYWKSSSSGKKTAKTNTNEFLIDVDKGENYCFSVQAVIPSRTVNRKSTDSPVECMGQEKGEFRE
notes: also called hTF; control soluble hTF
